According to the DeepSol protein solubility set:

Test: soluble on expression in E. coli; label from the status in PepcDB or PDB records

**Q.** Which “soluble on expression in E. coli” value does the source give for “MAHHHHHHMPAVKQHLTGKASAAMRPTPSDAGAVLEPLTVRPSRVTTTTDHLTTSSAISTISVDTIRECGSAEDAYEAGKELGGVGPVFTGVAVPAEHPVAAAMPADAAELRHEEELKVIMCRYRPQSTEN” here?
**A.** soluble

**Q.** Which “soluble on expression in E. coli” value does the source give for “MLTIHTKLISAMITQSLKDHPIETCGIIAGLAGSNLPLRLIPMRNVAQSENFFMFDPQQQLQVWKEMSARHEEPVVIYHSHTGSEAYPSRSDVELAAEPQAHYVIIPTCSPHKEEIRSFRIVDQMVIEERVQIVRQYQPELEFQMMVALEHHHHHH” here?
**A.** not soluble

**Q.** For “MSLEVLATFLYKFNGWSFLGRVLQNLSKNFDFTDREKVDTIVDIMSMLTKVVGEVSVEDSKHALTSMSAYTDDSDVLEVIFRLFEQSLHSRNIRMIESILNLLTQLVPIFSYRIWPAFSKSALLFDGTREGFATVIFGSIEMVNGDFRLTIALAKLTDALVYDCLTLDNAVPSKVKEAVLKKLVSHLIAVMESYAQEGHHHHHH”, which “soluble on expression in E. coli” value is on record?
**A.** soluble

**Q.** With “MGSDKIHHHHHHMTQQVINSTSKNHLSPLENQKRYRVVLVHPSAGVNWSGGSEIFAIELARHLNSYFNVELLSGADCGSFSFPSGGISRTQAFNIVRHPLISKLLSRFASHPEIVIEHLSNFFPCAIQLLTKSADLIFPCNDYGGMAMAAFVRAIKGTPILFTEHVGLLGGGKSLTRNLRFHPDQLVVFSEAMAEFVRSVQPQQKVSIIPNGVDINRFTPVGNYINFGLPKPIVLCVASLKRHSHKRIGLAMEAVARLPQISLLLCGDGIDRDYFQAKGDELLGKERFKIQSFPYEQMPTVYRSADVFTLPSIDEPFGLAYVEAMASGLPVIATDDEMRRQIVGDAGRLCDVTNPDIYAAAIREILTQDWQVRARQKALGFSWENIALRYRELILKTIQGDQQNH” as the sequence, how does the “soluble on expression in E. coli” value read?
**A.** not soluble

**Q.** For “MKRIPIKELIVEHPGKVLILDGGQGTELENRGININSPVWSAAPFTSESFWEPSSQERKVVEEMYRDFMIAGANILMTITYQANFQSISENTSIKTLAAYKRFLDKIVSFTREFIGEERYLIGSIGPWAAHVSCEYTGDYGPHPENIDYYGFFKPQLENFNQNRDIDLIGFETIPNFHELKAILSWDEDIISKPFYIGLSVDDNSLLRDGTTLEEISVHIKGLGNKINKNLLLMGVNCVSFNQSALILKMLHEHLPGMPLLVYPNSGEIYNPKEKTWHRPTNKLDDWETTVKKFVDNGARIIGGCCRTSPKDIAEIASAVDKYS”, which “soluble on expression in E. coli” value is on record?
**A.** soluble

**Q.** Which “soluble on expression in E. coli” value does the source give for “MRGSHHHHHHTDPALRAMATLLQLHFAFNGPFGDAMAEQLKPLAESINQEPGFLWKVWTESEKNHEAGGIYLFTDEKSALAYLEKHTARLKNLGVEEVVAKVFDVNEPLSQINQAKLAGLCGR” here?
**A.** soluble

**Q.** With “MHHHHHHSSRENLYFQGTLPLWIGKPGDKPPPLCGAIPASGDYVARPGDKVAARVKAVDGDEQWILAEVVSYSHATNKYEVDDIDEEGKERHTLSRRRVIPLPQWKANPETDPEALFQKEQLVLALYPQTTCFYRALIHAPPQRPQDDYSVLFEDTSYADGYSPPLNVAQRYVVACKEPK” as the sequence, how does the “soluble on expression in E. coli” value read?
**A.** soluble

**Q.** For “MPEEDLVELKFRLYDGSDVGPFQYSPTATVSMLKERIVSEWPKDKKIVPKSASDIKLINAGKILENGKTVAQCKAPFDDLPKSVITMHVVVQLSPTKARPEKKIEKEEAPQRSFCSCTIM”, which “soluble on expression in E. coli” value is on record?
**A.** soluble

**Q.** For “AEDRSLQAEPWFFGAIKRADAEKQLLYSENQTGAFLIRESESQKGDFSLSVLDEGVVKHYRIRRLDEGGFFLTRRKVFSTLNEFVNYYTTTSDGLCVKLEKPCLKIQV”, which “soluble on expression in E. coli” value is on record?
**A.** soluble

**Q.** With “MNDEINEPPPNICEQCLGDEANIRMTKIPQGSECKICTLPFTLYHFKTSKRSNNIIKTLICVRCATQRNICQCCMLDSRWHIPIQLRDHLISLVNEENVMTEEAKNDMMKRFLSLKNVKLGGAQITSDPSEADNIVDKLKNILLRATSDGPSTPLIKNTTALYKNEKGANEVKNLEKYASVDISHILKKLPLNESFLKNPSTKSFFLYNIDASIPEWKITDTVSQLLGIKKWKDGNSLSLIVNHKAKCGGLRFQSSELGERFVSKISETLVTPKGLKRGVLLIDRFRIFIIPWSSGFSAASFGTNTAENIKLSLSLNKLIQLELGLSFPTKSTDNAKNDKKKTSKKVHKDRSKKSKPRANKLTI” as the sequence, how does the “soluble on expression in E. coli” value read?
**A.** soluble

**Q.** For “MPTYKLSYFDVRAYAEPARILFHLAGVPFDDHRFPHGDGTWEKLKDKTPFGQVPVLYVDGFEIPQSAAIIRYLANKFGYAGKTPEEQAWADAIVDQFKDFMSLFREFKLAQKAGKSDVEIAKVASEVAIPARDSYFEIITNLLEKSKSGFLVGDGLTFADIVVVESLTNLEKVHFFDASEHPKLAALREKIYAIPAIKSWVDIRPDTIY”, which “soluble on expression in E. coli” value is on record?
**A.** not soluble
